Here are results for 2 molecules from PMC7057392 (ACS chemical neuroscience, 2020).

Test [1] addresses Cys-min α7 nAChR (human α7 nAChR containing only the C128-C142 and C190-C191 cysteines) (human) (UniProt P36544). Put plainly: SPR.
Test [2] addresses wild-type human α7 nicotinic acetylcholine receptor (human, UniProt P36544 23-502). Put plainly: SPR.

As for “PDZ domain of PICK1 (first 126 amino acids of PICK1) (from UniProt Q9NRD5 1-126) (domain or fragment)”, in test [1], the dissociation constant (Kd) was 2600 nM. This counts as single-digit micromolar.

B1: PDZ domain of PICK1 (first 126 amino acids of PICK1) (domain or fragment, UniProt Q9NRD5 1-126, looked up)
chain: MFADLDYDIEEDKLGIPTVPGKVTLQKDAQNLIGISIGGGAQYCPCLYIVQVFDNTPAALDGTVAAGDEITGVNGRSIKGKTKVEVAKMIQEVKGEVTIHYNKLQADPKQGMSLDIVLKKVKHRLV
In turn, B1 had a Kd in test [2] of 2500 ± 400 nM.
